According to publication PMC7443692:

Target: SARS-CoV-2 Spike glycoprotein trimer immunogen (stabilized, soluble ectodomain) (SARS-CoV-2 | not stated) (UniProt P0DTC2)
Assay: negative stain electron microscopy

SARS-CoV-2 Spike glycoprotein trimer immunogen (stabilized, soluble ectodomain) (from UniProt P0DTC2 14-1208)
stoichiometry N: 3
